Test results: the RNAGym collection of RNA variant scans (doi:10.1073/pnas.2313332121)
Variants at the floor of the assay were thinned out.

B1: TPR 5TU (parent)
chain: GGAUCUUCUCGAUCUAACAAAAAAGACAAAUCUGCCACAAAGCUUGAGAGCAUCUUCGGAUGCAGAGGCGGCAGCCUUCGGUGGCGCGAUAGCGCCAACGUUCUCAACUAUGACACGCAAAACGCGUGCUCCGUUGAAUGGAGUUUAUCAUG

Variants of: B1
Assay: polymerase ribozyme fitness, log enrichment relative to wild type (log ratio); higher = more active; in vitro selection for triplet polymerase activity
How it was run: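 To select mutant libraries of each subunit of a heterodimeric triplet polymerase ribozyme, built by PCR and transcribed, each was annealed with a biotinylated primer, partner subunit and triplets, then incubated frozen at −7 °C. Extended constructs were gel-excised, captured on streptavidin beads and amplified by RT-PCR, in one round carried out in triplicate. Illumina sequencing of input and output libraries kept genotypes with ≥10 input reads and ≥1 read per output. Fitness is the base-2 logarithm of genotype enrichment relative to wild-type enrichment, from inverse-variance-weighted replicate averages.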

Compared with G50A A110G, G50C G117A is higher in “polymerase ribozyme fitness (log ratio)” value: -3.88 for the first, -2.37 for the second.

Compared with U56A U61C, A41C C51A U56A G58C U82C C87A G136U is lower in “polymerase ribozyme fitness (log ratio)” value: -3.45 for the first, no more than -4.2 for the second.

First: U82C G83A C103U
Second: A37C G83A A122U C131U U134C
The “polymerase ribozyme fitness (log ratio)” value of the first is lower: -0.585 for the first, 0.318 for the second.

Going from G59A C99A G140U to U15G G94C C96U U111A G152A, the “polymerase ribozyme fitness (log ratio)” value falls from -3.99 to no more than -4.2.

First: U55A A73U C93A A122U
Second: A60C C76A G92U C95A U145G C149G
The “polymerase ribozyme fitness (log ratio)” value of the first is higher: -3.55 for the first, no more than -4.2 for the second.

Going from A16C G59A C85G G126U to A23C C32A U56A A60G C103A A110G G112C, the “polymerase ribozyme fitness (log ratio)” value falls from -2.76 to no more than -4.2.

Going from A28U U55A C72U U90C A115G to A19G G59U, the “polymerase ribozyme fitness (log ratio)” value rises from no more than -4.2 to -0.93.

Compared with A89C C125A, U77G C85U C108A A113G is lower in “polymerase ribozyme fitness (log ratio)” value: -1.13 for the first, no more than -4.2 for the second.

Going from U4C G94C C116G to A19G A73G C85A, the “polymerase ribozyme fitness (log ratio)” value falls from -0.818 to -1.82.

First: C57U C114G
Second: A40U U45A C69U G83U G141A U144A
The “polymerase ribozyme fitness (log ratio)” value of the first is higher: -2.73 for the first, no more than -4.2 for the second.

A12G C54U U61A C72A C96U A98U C99A A142C and C43U C54G G92A U148G C149U cannot be ordered by “polymerase ribozyme fitness (log ratio)” value: no more than -4.2 for the first, no more than -4.2 for the second.

G11A G67A C79G C87A C114G A137G and C5G U13A A23U A52C C87A C105U A107G cannot be ordered by “polymerase ribozyme fitness (log ratio)” value: no more than -4.2 for the first, no more than -4.2 for the second.

Compared with A19U C105G, G11A G58U C96U is higher in “polymerase ribozyme fitness (log ratio)” value: -1.81 for the first, -1.58 for the second.

A73C C87G G141C and A12U A41U G65C G70C C79U cannot be ordered by “polymerase ribozyme fitness (log ratio)” value: no more than -4.2 for the first, no more than -4.2 for the second.

A52G A60G C75U G88U G92A C95U C116U and C10U G94A U148G cannot be ordered by “polymerase ribozyme fitness (log ratio)” value: no more than -4.2 for the first, no more than -4.2 for the second.

U53A C63A A66G G67A G84A A97G and A40G A60C U61A G81C U90G G94A C123A U139A cannot be ordered by “polymerase ribozyme fitness (log ratio)” value: no more than -4.2 for the first, no more than -4.2 for the second.

U7A A60G C85U U144C and C14U G58C C85U A89G G136A are within 0.2 log units of each other in “polymerase ribozyme fitness (log ratio)” value: -3.61 for the first, -3.44 for the second.

Compared with U53G C96U C114U A120C A147U, C38U A41C G48A C51A G84C G141C is lower in “polymerase ribozyme fitness (log ratio)” value: -3.11 for the first, no more than -4.2 for the second.

A22C A41C A49C U53A G67U G117A C131A and A30U G58C C76A G94C U104G G136A cannot be ordered by “polymerase ribozyme fitness (log ratio)” value: no more than -4.2 for the first, no more than -4.2 for the second.

Compared with A120U A137C A138U, U44A G80A A121U U144A is lower in “polymerase ribozyme fitness (log ratio)” value: -4.19 for the first, no more than -4.2 for the second.

Compared with A19U C69G C96G U104G, C10G G81C C87A U127C U144A U148A is lower in “polymerase ribozyme fitness (log ratio)” value: -1.98 for the first, no more than -4.2 for the second.

Compared with A3U C85A, C38U C87G is lower in “polymerase ribozyme fitness (log ratio)” value: -1.48 for the first, -3.75 for the second.

U44A G50C U53A C87A A106G A107U and G42C U56A G84U A121C cannot be ordered by “polymerase ribozyme fitness (log ratio)” value: no more than -4.2 for the first, no more than -4.2 for the second.

First: G25U G81A G94U A120U G141C
Second: G50U U56A C114U
The “polymerase ribozyme fitness (log ratio)” value of the first is lower: -3.76 for the first, -2.18 for the second.

Going from A66G C105U to C10U G50A U55G A91G G143C, the “polymerase ribozyme fitness (log ratio)” value falls from -3.63 to no more than -4.2.

First: C43A G88A
Second: A16G G94U C95A U134G
The “polymerase ribozyme fitness (log ratio)” value of the first is lower: no more than -4.2 for the first, -3.52 for the second.

First: C85G C116U
Second: U15C A22G
The “polymerase ribozyme fitness (log ratio)” value of the first is lower: -1.66 for the first, 1.56 for the second.

Compared with G42U A91G G128U G133A, A52C G62C A120G G140U is higher in “polymerase ribozyme fitness (log ratio)” value: no more than -4.2 for the first, -4.1 for the second.

First: U44G C75G G88C
Second: C85U G143A
The “polymerase ribozyme fitness (log ratio)” value of the first is lower: no more than -4.2 for the first, 0.273 for the second.

U4C A28G C38U C69U C87G G133A and A22C A47C C51G A64G C72A C95U A107G A113U U135A cannot be ordered by “polymerase ribozyme fitness (log ratio)” value: no more than -4.2 for the first, no more than -4.2 for the second.

First: C18U C85U
Second: A21C U53A A91U C95G U134A U139C G152U
The “polymerase ribozyme fitness (log ratio)” value of the first is higher: -0.241 for the first, no more than -4.2 for the second.

Going from C79U G92U to A19U G50U G58C C75U C118G A120G G141A U146A, the “polymerase ribozyme fitness (log ratio)” value falls from -1.44 to no more than -4.2.

C18A A52G C87A G92C C95A U104A and C43A C57G G84A cannot be ordered by “polymerase ribozyme fitness (log ratio)” value: no more than -4.2 for the first, no more than -4.2 for the second.

U13A A30G A37C G68U and C18A A21U A29U U56A C95A A137G A142C cannot be ordered by “polymerase ribozyme fitness (log ratio)” value: no more than -4.2 for the first, no more than -4.2 for the second.

Compared with C93A C96A, C93A A113U is lower in “polymerase ribozyme fitness (log ratio)” value: -3.78 for the first, -4.07 for the second.

First: G67U C93U
Second: C14U G46A C54A C132A
The “polymerase ribozyme fitness (log ratio)” value of the first is higher: -3.74 for the first, no more than -4.2 for the second.

Going from G50U G67U C85G C103U G140A A147G to A21G G92C, the “polymerase ribozyme fitness (log ratio)” value rises from no more than -4.2 to 0.365.

Compared with C10U G42C C69A C95G A142G A150G, C87U A106G is higher in “polymerase ribozyme fitness (log ratio)” value: no more than -4.2 for the first, -0.549 for the second.

Going from G58C U82G C132A to G48A A60G G84U, the “polymerase ribozyme fitness (log ratio)” value rises from -2.83 to -1.73.

First: C54U C93U U144C U146G
Second: A49C C69G C85A A120C C125U
The “polymerase ribozyme fitness (log ratio)” value of the first is higher: -3.87 for the first, no more than -4.2 for the second.

Going from C8U G25C U82A C87A to C69U A119U, the “polymerase ribozyme fitness (log ratio)” value rises from no more than -4.2 to -1.57.

Compared with A21U G141U, C54U G65U A73U A91U C108G is lower in “polymerase ribozyme fitness (log ratio)” value: 1.9 for the first, no more than -4.2 for the second.
